Measurements reported in article PMC7367873, “Dissecting the sequence determinants for dephosphorylation by the catalytic subunits of phosphatases PP1 and PP2A” (Nature Communications, 2020).

Tests used:
[1] = tested on: GFP-14-3-3β; test: GFP-14-3-3β co-IP with LC-MS/MS, untreated GFP-14-3-3β versus GFP control (14-3-3 interactome); format: binding, human; details: label-free quantification
[2] = tested on: GFP-14-3-3β and its binding proteins; test: GFP-14-3-3β co-IP with LC-MS/MS label-free quantification, untreated versus PP1c-treated; set-up: species or system human; details: label-free quantification

B1: TRIM56 (protein, UniProt Q9BRZ2 1-755, looked up)
E3 ubiquitin-protein ligase …: MVSHGSSPSLLEALSSDFLACKICLEQLRAPKTLPCLHTYCQDCLAQLADGGRVRCPECRETVPVPPEGVASFKTNFFVNGLLDLVKARACGDLRAGKPACALCPLVGGTSTGGPATARCLDCADDLCQACADGHRCTRQTHTHRVVDLVGYRAGWYDEEARERQAAQCPQHPGEALRFLCQPCSQLLCRECRLDPHLDHPCLPLAEAVRARRPGLEGLLAGVDNNLVELEAARRVEKEALARLREQAARVGTQVEEAAEGVLRALLAQKQEVLGQLRAHVEAAEEAARERLAELEGREQVARAAAAFARRVLSLGREAEILSLEGAIAQRLRQLQGCPWAPGPAPCLLPQLELHPGLLDKNCHLLRLSFEEQQPQKDGGKDGAGTQGGEESQSRREDEPKTERQGGVQPQAGDGAQTPKEEKAQTTREEGAQTLEEDRAQTPHEDGGPQPHRGGRPNKKKKFKGRLKSISREPSPALGPNLDGSGLLPRPIFYCSFPTRMPGDKRSPRITGLCPFGPREILVADEQNRALKRFSLNGDYKGTVPVPEGCSPCSVAALQSAVAFSASARLYLINPNGEVQWRRALSLSQASHAVAALPSGDRVAVSVAGHVEVYNMEGSLATRFIPGGKASRGLRALVFLTTSPQGHFVGSDWQQNSVVICDGLGQVVGEYKGPGLHGCQPGSVSVDKKGYIFLTLREVNKVVILDPKGSLLGDFLTAYHGLEKPRVTTMVDGRYLVVSLSNGTIHIFRVRSPDS
Difference (log2), untreated vs GFP ([1]; untreated vs GFP): -0.02313 log2 | Difference (log2), PP1 vs untreated ([2]; PP1 vs untreated): 0.8378 log2

B2: PGAM5 (protein, UniProt Q96HS1 1-289, looked up)
Serine/threonine-protein …: MAFRQALQLAACGLAGGSAAVLFSAVAVGKPRAGGDAEPRPAEPPAWAGGARPGPGVWDPNWDRREPLSLINVRKRNVESGEEELASKLDHYKAKATRHIFLIRHSQYHVDGSLEKDRTLTPLGREQAELTGLRLASLGLKFNKIVHSSMTRAIETTDIISRHLPGVCKVSTDLLREGAPIEPDPPVSHWKPEAVQYYEDGARIEAAFRNYIHRADARQEEDSYEIFICHANVIRYIVCRALQFPPEGWLRLSLNNGSITHLVIRPNGRVALRTLGDTGFMPPDKITRS
Difference (log2), untreated vs GFP ([1]; log2 difference, pairwise comparison untreated vs GFP, 3 replicates each): -0.7531 | Difference (log2), PP1 vs untreated ([2]; log2 difference, pairwise comparison PP1 vs untreated, 3 replicates each): 2.342

B3: SRP68 (protein, UniProt Q9UHB9 1-627, looked up)
Signal recognition particle …: MAAEKQVPGGGGGGGSGGGGGSGGGGSGGGRGAGGEENKENERPSAGSKANKEFGDSLSLEILQIIKESQQQHGLRHGDFQRYRGYCSRRQRRLRKTLNFKMGNRHKFTGKKVTEELLTDNRYLLLVLMDAERAWSYAMQLKQEANTEPRKRFHLLSRLRKAVKHAEELERLCESNRVDAKTKLEAQAYTAYLSGMLRFEHQEWKAAIEAFNKCKTIYEKLASAFTEEQAVLYNQRVEEISPNIRYCAYNIGDQSAINELMQMRLRSGGTEGLLAEKLEALITQTRAKQAATMSEVEWRGRTVPVKIDKVRIFLLGLADNEAAIVQAESEETKERLFESMLSECRDAIQVVREELKPDQKQRDYILEGEPGKVSNLQYLHSYLTYIKLSTAIKRNENMAKGLQRALLQQQPEDDSKRSPRPQDLIRLYDIILQNLVELLQLPGLEEDKAFQKEIGLKTLVFKAYRCFFIAQSYVLVKKWSEALVLYDRVLKYANEVNSDAGAFKNSLKDLPDVQELITQVRSEKCSLQAAAILDANDAHQTETSSSQVKDNKPLVERFETFCLDPSLVTKQANLVHFPPGFQPIPCKPLFFDLALNHVAFPPLEDKLEQKTKSGLTGYIKGIFGFRS
Difference (log2), untreated vs GFP ([1]; untreated vs GFP): 0.06806 log2 | Difference (log2), PP1 vs untreated ([2]; PP1 vs untreated): 0.7891 log2
